In patent publication US20190302117:

Experiments:
[1] = target: T1, Peptide 11: DEAIYATVAGGKKK (version of peptide 5 used for the kinetic experiments)
T1 chain: DEAIYATVAGGKKK

[2] = target: T2, Peptide 10: EDPIYVTLEGGKKK (version of peptide 2 used for the kinetic experiments)
T2 chain: EDPIYVTLEGGKKK

B1: BTK as GST fusion protein (protein)
chain: MAAVILESIFLKRSQQKKKTSPLNFKKRLFLLTVHKLSYYEYDFERGRRGSKKGSIDVEKITCVETVVPEKNPPPERQIPRRGEESSEMEQISIIERFPYPFQVVYDEGPLYVFSPTEELRKRWIHQLKNVIRYNSDLVQKYHPCFWIDGQYLCCSQTAKNAMGCQILENRNGSLKPGSSHRKTKKPLPPTPEEDQILKKPLPPEPAAAPVSTSELKKVVALYDYMPMNANDLQLRKGDEYFILEESNLPWWRARDKNGQEGYIPSNYVTEAEDSIEMYEWYSKHMTRSQAEQLLKQEGKEGGFIVRDSSKAGKYTVSVFAKSTGDPQGVIRHYVVCSTPQSQYYLAEKHLFSTIPELINYHQHNSAGLISRLKYPVSQQNKNAPSTAGLGYGSWEIDPKDLTFLKELGTGQFGVVKYGKWRGQYDVAIKMIKEGSMSEDEFIEEAKVMMNLSHEKLVQLYGVCTKQRPIFIITEYMANGCLLNYLREMRHRFQTQQLLEMCKDVCEAMEYLESKQFLHRDLAARNCLVNDQGVVKVSDFGLSRYVLDDEYTSSVGSKFPVRWSPPEVLMYSKFSSKSDIWAFGVLMWEIYSLGKMPYERFTNSETAEHIAQGLRLYRPHLASEKVYTIMYSCWHEKADERPTFKILLSNILDVMDEES
B1 gave a Km [1] of 84 µM, a kcat [1] of 0.26 s⁻¹ and a kcat/Km [1] of 3170 M⁻¹ s⁻¹. For the same protein, the 2/5 kcat/Km ratio (peptide 2 against peptide 5) [2] was 0.31, the Km [2] was 64 µM and the kcat [2] was 0.061 s⁻¹. For the same protein, the kcat/Km [2] was 970 M⁻¹ s⁻¹.

B2: His6-ALK 1090-1416 (protein)
chain: HHHHHHTDYNPNYCFAGKTSSISDLKEVPRKNITLIRGLGHGAFGEVYEGQVSGMPNDPSPLQVAVKTLPEVCSEQDELDFLMEALIISKFNHQNIVRCIGVSLQSLPRFILLELMAGGDLKSFLRETRPRPSQPSSLAMLDLLHVARDIACGCQYLEENHFIHRDIAARNCLLTCPGPGRVAKIGDFGMARDIYRASYYRKGGCAMLPVKWMPPEAFMEGIFTSKTDTWSFGVLLWEIFSLGYMPYPSKSNQEVLEFVTSGGRMDPPKNCPGPVYRIMTQCWQHQPEDRPNFAIILERIEYCTQDPDVINTALPIEYGPLVEEEEKVPVRPK
In the case of B2, the Km [1] is reported as > 200 µM, the kcat [1] is reported as > 0.02 s⁻¹ and the kcat/Km [1] is reported as 79 M⁻¹ s⁻¹. For the same protein, the 2/5 kcat/Km ratio (peptide 2 against peptide 5) [2] was 1.23, the Km [2] was > 200 µM and the kcat [2] was > 0.02 s⁻¹. The kcat/Km [2] was 95 M⁻¹ s⁻¹.

B3: GST-FLT3 564-993 (intracellular portion of human FLT3 fused to GST) (protein)
chain: HKYKKQFRYESQLQMVQVTGSSDNEYFYVDFREYEYDLKWEFPRENLEFGKVLGSGAFGKVMNATAYGISKTGVSIQVAVKMLKEKADSSEREALMSELKMMTQLGSHENIVNLLGACTLSGPIYLIFEYCCYGDLLNYLRSKREKFHRTWTEIFKEHNFSFYPTFQSHPNSSMPGSREVQIHPDSDQISGLHGNSFHSEDEIEYENQKRLEEEEDLNVLTFEDLLCFAYQVAKGMEFLEFKSCVHRDLAARNVLVTHGKVVKICDFGLARDIMSDSNYVVRGNARLPVKWMAPESLFEGIYTIKSDVWSYGILLWEIFSLGVNPYPGIPVDANFYKLIQNGFKMDQPFYATEEIYIIMQSCWAFDSRKRPSFPNLTSFLGCQLADAEEAMYQNVDGRVSECPHTYQNRRPFSREMDLGLLSPQAQVEDS
Protein B3 has a Km [2] of 41 µM, a kcat [2] of 0.013 s⁻¹ and a kcat/Km [2] of 304 M⁻¹ s⁻¹.
